The source of these data is article PMC5921532, “Identification of Iridoid Glucoside Transporters in Catharanthus roseus” (Plant and Cell Physiology, 2017).

In one data set the target is T1, AtNPF2.9 (Arabidopsis thaliana, UniProt Q9M9V7).
T1 construct: gene NPF2.9; full-length cDNA from transporter library, cRNA expressed in Xenopus laevis oocytes
T1 sequence (Q9M9V7 1-587): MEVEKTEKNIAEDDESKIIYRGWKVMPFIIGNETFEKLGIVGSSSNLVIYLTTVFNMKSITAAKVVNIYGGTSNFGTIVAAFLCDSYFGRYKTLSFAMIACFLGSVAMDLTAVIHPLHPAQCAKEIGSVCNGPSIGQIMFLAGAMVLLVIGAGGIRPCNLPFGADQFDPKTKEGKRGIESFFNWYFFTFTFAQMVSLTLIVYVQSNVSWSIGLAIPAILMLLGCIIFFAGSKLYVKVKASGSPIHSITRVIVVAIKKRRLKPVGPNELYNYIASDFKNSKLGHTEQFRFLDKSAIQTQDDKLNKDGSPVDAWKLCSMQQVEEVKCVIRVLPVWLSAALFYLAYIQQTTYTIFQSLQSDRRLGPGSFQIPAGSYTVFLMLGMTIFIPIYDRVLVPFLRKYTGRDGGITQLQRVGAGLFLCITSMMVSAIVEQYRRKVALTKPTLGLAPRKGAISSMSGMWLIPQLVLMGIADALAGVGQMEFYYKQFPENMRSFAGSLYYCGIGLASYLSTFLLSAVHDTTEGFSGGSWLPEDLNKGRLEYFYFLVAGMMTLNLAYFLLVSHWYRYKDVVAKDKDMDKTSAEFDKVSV
As to the kind of experiment: uptake screen in Xenopus oocytes, LC-MS. The format is cell-based. Conditions: pH 5.0; Kulori buffer; 0.5-1 mM loganin, 1 h.

The next data set deals with T2, AtNAT4 (Arabidopsis thaliana, UniProt P93039).
T2 construct: gene NAT4; full-length cDNA from transporter library, cRNA expressed in Xenopus laevis oocytes
T2 sequence (P93039 1-526): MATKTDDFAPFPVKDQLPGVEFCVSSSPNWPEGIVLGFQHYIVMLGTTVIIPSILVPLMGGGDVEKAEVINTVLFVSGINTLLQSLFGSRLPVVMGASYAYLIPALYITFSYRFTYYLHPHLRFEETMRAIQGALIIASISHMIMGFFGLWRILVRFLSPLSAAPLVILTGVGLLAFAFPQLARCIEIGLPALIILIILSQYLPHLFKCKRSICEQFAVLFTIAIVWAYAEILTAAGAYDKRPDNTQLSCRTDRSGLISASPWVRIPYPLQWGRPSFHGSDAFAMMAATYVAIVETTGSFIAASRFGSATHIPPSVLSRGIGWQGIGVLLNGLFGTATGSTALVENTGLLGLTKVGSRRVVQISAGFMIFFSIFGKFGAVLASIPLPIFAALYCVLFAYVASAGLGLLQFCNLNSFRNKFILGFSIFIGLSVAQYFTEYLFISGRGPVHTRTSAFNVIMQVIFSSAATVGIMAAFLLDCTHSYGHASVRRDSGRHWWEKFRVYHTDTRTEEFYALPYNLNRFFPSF
As to the kind of experiment: uptake screen in Xenopus oocytes, LC-MS. It counts as cell-based. The settings on record: pH 5.0; Kulori buffer; 0.5-1 mM loganin, 1 h.

Substrate in data set [1]: COC(=O)C1=CO[C@@H](O[C@@H]2O[C@H](CO)[C@@H](O)[C@H](O)[C@H]2O)[C@@H]2[C@@H](C)[C@@H](O)C[C@H]12
As to the kind of experiment: uptake into Xenopus oocytes, LC-MS, Michaelis-Menten fit. The settings on record: pH 5.0, Kulori buffer, 12.5 µM to 2 mM loganin. The format is cell-based, Catharanthus roseus.

`COC(=O)C1=CO[C@@H](O[C@@H]2O[C@H](CO)[C@@H](O)[C@H](O)[C@H]2O)[C@@H]2[C@@H](C)[C@@H](O)C[C@H]12` [loganin, (1S,4aS,6S,7R,7aS)-6-hydroxy-7-methyl-1-[(2S,3R,4S,5S,6R)-3,4,5-trihydroxy-6-(hydroxymethyl)oxan-2-yl]oxy-1,4a,5,6,7,7a-hexahydrocyclopenta[c]pyran-4-carboxylate]: the results for the “uptake screen in Xenopus oocytes, LC-MS” value on AtNPF2.9 and on AtNAT4 were “initially screened cDNA library” and “Two transporters were identified”, respectively.

B1: CrNPF2.6 (Catharanthus roseus) (protein)
chain: MEKNEKLVPNGTKEDGKVAAKNEPNYRGIKAMPFVLGNETCEKLGTIGTSSNLSVYLSTVFHMNTMSANNVINIFNGTCYLGSLVGAFLCDTYFGRYKTLGLGSVASFLGMLMLTLTAAISTLHPTNCDNSGDCKGPSAGQMAFLVGGFVLMVIGASGIRPCNLAFGADQFNPNTESGRRGINSFFNWYYFTYTFAVMVSATIIVYVQSDISWSIGFAIPTSLMFLSCALFFAGTWLYVKVLPQGSPMTSLVQVIVVSVKKRRLKLPGEPSLLFNHIPSNAINSKLPRTNNFRFLDKAAILTPEDKVNPDGSAANKWKLCSIQQVEEVKCVLRVLPIWIAGVIFQISVTQQSNYVPFQAFQSDRHLIKGNKFQIPAGTYNVFSMLALTIWLPIYDRIIIPLLRRWTKKEDGITLLQRMGVGIVLSILSMLVSALVESRRRNLALTRPTLGIQEGQGSISSMSALWFVPQLALMGLAEGFTFIGENELFYKEFPENMRSIAASLVLCGVAVASYLTSFIAEIVHKTTRSGTRDWLAQDLNKARLDYFFYMVAVLEALNLVYFLVCAKWYRYKGTGDLGKLEVAMEKLETEKHLV
notes: full-length, Gateway cloned from C. roseus cDNA into pOO2-GW, cRNA expressed in Xenopus laevis oocytes
The Km is the concentration of substrate that gives half-maximal velocity. B1: the Km in data set [1] is given as 60 ± 5 µM.

B2: CrNPF2.5 (Catharanthus roseus) (protein)
chain: MEENQEHKAIKNHEPNYRGIKAMPFVIGNETFEKLGTIGTSTNLLIYLTSVFHMKTITATNLVNIFNGTCNFGTLVGAFLCDTYFGRYNTLGFASVSSFLGMLVLTLTAAIKNLHPEACGNEEGSKCISPSGGQMAFLLSGFAFLIVGASGIRPCNLAFGADQFNPNTDSGRRGINSFFNWYYFTYTFAMMVSLTIIVYVQSNISWSIGLAIPTFLMFLSCATFFVGTRIYVRVLPEGSPLISVARVIVSAFKKRKLELPDEPKLSLFNHSASSTSSINSKISYTDQFRFLNKAAIITSEDEFNSDGSVKNPWRICTIQQVEEVKCLLKLIPVWISCIIYYISVVQQQNYVVFQALQSDRRLFGTSKFKIPAASYIVIAMLALTIWIPIFDRIIVPCLQKITGKEGGITILQRMGIGMVLSVLTMITSALVESKRRKFALNRPTLGFEPRKGAISSMSGVWLIPQLALSGLSEAFTIIGENELFYKECPENMRSIAMALVFVGFAGSSYLSSLLSSIVQKTTGGNESWLAEDLNRGRLDYFYYLIGALETLNLIYFLVCSKWYKYKQVEKIPQVAMEKLNNVEEKSLV
notes: as for B1
Take B2: the Km in data set [1] amounted to 387 ± 57 µM.

B3: CrNPF2.4 (Catharanthus roseus) (protein)
chain: MAEKSSSIDATENGFVKIKEPNHRGVKAMPFIVGNETFEKLGTLGTSANLLIYLTTVFHMKSITATNLINIFNGTCNFGTLLGAFFSDTYFGRYKTLGFASVSSTLGMLILTLTAAISKLHPPSCEKNSKACSGPTSGQFAFLFTAFLFLIIGASGIRPCNLAFGADQFNPNTESGRKGTNSFFNWYYFTFTFAMMVSLTVIVYVQSSISWALGLAIPTFLMLLSCVFFFVGSRIYVKVLPEGSPLTSMMQVIVAAFRKRKLNLPDHQPWDSLFNYISPSSINSKLSYTDQFRWLNKAAIKTSKDHLYAEGSTANPWRLCSMQQVEEVKCVIRSIPIWTSGVLYYVVLNQMSTYLVFQALQSDRRIGKTNFKIPAASYTVFSMLSLSIWIPIYDRIIVPFLRKITKTEQGITILQKMGFGLVIAVITMVVSAIIEDKRRVIALTRPIVGIEERKGGISSLSGFWLVPQLALAGISEAFTVIAQVEFFYKQFPENMRSFGGSFLFCGFAISSYLSSFLISIVHKVTRNSSGGNWLDEDLNKARLDYFYYLVAGLEVLNFGYFLVCAHWYRYKETQSGNEIAMEQILDEPKKNLDVV
notes: as for B1
B3: in data set [1], the Km is listed as 237 ± 35 µM.
